Measured values: US20260139017A1, “COMPOSITIONS AND METHODS USING REELIN IN ALZHEIMER'S DISEASE” (The General Hospital Corporation, priority 2022, published 2026)
“Also recorded” adds a separate entry of the source.

Key:
pDAB1 (Tyr232) = test: HRECs treated 5 minutes with recombinant mini-RELN, pDAB1 western blot; assay type: cell-based, human; conditions: for pDAB1 levels: 5 minutes, 4 ug/mL recombinant protein
Protocol: For in vitro screening of constructs using recombinant mini-RELN on HRECs, the cells were cultured in EBM-2 media enriched with EGM-2 Single Quots (Lonza) at 37° C. and 5% CO2 and experimentally tested at passage 7. 24 h prior experiment, cells were plated on a 6-well plate at 500,000 cells/mL. Two hours before the experiment, the cells were washed with PBS to remove residual growth media and then incubated with a starving media including EBM-2, 1% GlutaMax+0.2% Normicin. Treatments was conducted using recombinant mini RELN constructs obtained from Innovagen and Recombinant Mouse Reelin Protein from R&D systems (3820-MR-025/CF). Each treatment was incubated for 5 minutes at 4 ug/mL concentration and cells were subsequently harvested in lysis buffer was applied constituted of RIPA (Cell signaling), proteases inhibitors (cOmplete™, Mini, EDTA-free Protease Inhibitor Cocktail, Roche), phosphatases inhibitors (PhosSTOP, Roche), 1 μL of proteasome inhibitor MG-132 10 mM, 1% Triton X 100. The lysates were scraped and centrifugated at 15000 rpm for 10 minutes at 4° C. Total protein levels were quantified via BCA assay. For Western Blotting, 3.5 ug protein homogenates were prepared under reducing and denaturing conditions using Laemmli buffer enriched with 10 mM DTT and 5 min boiling. Samples were electrophoretically separated in a 4-20% Gel at 90V and protein transferred to a PVDF membrane using iBlot™ 2 Dry Blotting System. The membrane was blocked using Intercept® (TBS) Blocking Buffer for 2 hours. We detected pDAB1 (Tyr232; 1:1000, rabbit, #3325 Cell signaling), and total protein staining (Licor). Antibodies were diluted using Intercept® (TBS) Blocking Buffer and incubated overnight at 4C under gentle shaking. Prior secondary antibody incubation, membranes were washed 2 times using TBS-T for 10 minutes. As secondary antibodies we used IR Dye 800n CW Goat-anti-Rabbit (925-32211, Licor) diluted 1:10000 in blocking buffer for 1 h at room temperature under gentle shaking. Membranes were washed three times with TBST-T prior IR detection using Odyssey imager. To quantify the results, each band was quantified using ImageJ and data expressed as pDABL:total protein ratio normalized to the control.

pDAB1 [1] = test: Immunofluorescence of cleared brain sections (Fc tag, pDAB1) after MIND delivery; assay type: in vivo, mice
Protocol: 24 or 72 hours after Mini Reelin (225S) or vehicle administration, mice were intracardially perfused with 4% PFA in PBS and brains were harvested and incubated in 4% PFA at 4° C. for 24 hours. Sagittal sections were obtained at 1 mm thickness using a stainless-steel brain matrix. The entorhinal-hippocampal section of each brain was chosen for Clarity using Binaree® Tissue Clearing™ Kit (HRTC-012) following the kit guidelines. Sections were incubated with IgG-Fc tag and pDAB1 primary antibodies for 72 h followed by secondary antibody: Alexa 488 and Alexa 647, and DAPI for 1 h. Subsequently, sections were imaged using confocal SP8 microscope for quantification. […] This is proof of effective drug delivery, target engagement, and targeted RELN signaling activation, in the hippocampal formation.

[2] = Anti human IgG-Fc ELISA of hippocampus after trans-nasal mini-RELN; assay type: in vivo, mice; conditions: 72 h post injection, vs PBS vehicle
Excerpt: (§1) We used a MIND procure (trans nasal delivery using Minimally Invasive Nasal Depot (MIND), Padmakumar et al., J Control Release. 2021 Mar. 10; 331: 176-186) or intraperitoneal injection to administer miniRELN constructs into mice. MIND leverages the olfactory nerve to bypass the blood brain barrier. […] Using the MIND methodology provides one method of reaching the entorhinal cortex with minimal systemic exposure. […] (Jackson Laboratory) were housed under regular light/night cycle. All procedures were conducted under approved IACUC animal protocols. Prior to incision, the nasal region was shaved and cleaned using betadine and 70% alcohol and mouse subcutaneously injected with buprenorphine HCl and meloxicam (5 mg/kg). The nasal cavity was then opened using a scalped and nasal mucosa exposed using a microdrill. Once the mucosa was exposed, gel dispersion of either PBS or mini-RELN constructs (Innovagen) in 20% Pluronic (Sigma Aldrich) was subcutaneously delivered in the surgically-generated pocket. Mice were injected with meloxicam for 3 days prior euthanasia at day 4 to collect the brain tissue used for post-mortem analysis.

pDAB1 [3] = test: Trans-nasal (MIND) delivery of mini-RELN in mice, brain pDAB1 western blot; assay type: in vivo
Excerpt: as §1
Western blotting was performed as follows. 20 ug protein homogenates were prepared under reducing and denaturing conditions using Laemmli buffer enriched with 10 mM DTT and 5 min boiling. Samples were electrophoretically separated in a 4-20% Gel at 90V and protein transferred to a PVDF membrane using iBlot™ 2 Dry Blotting System. The membrane was blocked using Intercept® (TBS) Blocking Buffer for 2 hours. We detected pDAB1 (Tyr232; 1:1000, rabbit, #3325 Cell signaling), and Beta actin (1:5000, mouse, #66009-1-Ig, Proteintech). Antibodies were diluted using Intercept® (TBS) Blocking Buffer and incubated overnight at 4C under gentle shaking. Prior secondary antibody incubation, membranes were washes 2 times using TBS-T for 10 minutes. As secondary antibodies we used IR Dye 800n CW Goat-anti-Rabbit (925-32211, Licor) and IR Dye 680 CW Goat-anti-Mouse (925-68070, Licor) both diluted 1:10000 in blocking buffer for 1 h at room temperature under gentle shaking. Membranes were washed three times with TBS-T prior IR detection using Odyssey imager. To quantify the results, each band was quantified using ImageJ and data expressed as pDAB1:βActin ratio normalized to the control.

total DAB1 = test: Overexpression of mini-RELN constructs in HRECs, total DAB1 western blot; assay type: cell-based, human; conditions: 24 h overexpression in HRECs
Protocol: For in vitro overexpression, the HRECs were cultured in EBM-2 media enriched with EGM-2 Single Quots (Lonza) at 37° C. and 5% CO2 and experimentally tested at passage 7. 24 h prior experiment, cells were plated on a 6-well plate at 500,000 cells/mL. The cell transfection of plasmids was done with Lipofectamine 2000 (5 μL, Life technologies) according to the manufacturer. In detail, one day prior to transfection, cells were seeded to be 70% confluent at moment of transfection. The day of transfection lipofectamine was diluted and incubated for 10 minutes at room temperature, to allow the formation of the lipophilic complex. Subsequently, each plasmid (1 μg, Invivogen) was added to the lipid complex of Lipofectamine and incubated for 10 minutes. We used OPTIMEM media (Gibco) to block the transfection after 5 hours, to allow cells to recover and facilitate replication. Prior 5 h and 24 h post-transfection, cells were imaged using 10× magnification light microscope (Olympus CKX53).
24 h post-transfection, cells were harvested for western blotting analysis. Total protein levels were quantified via BCA assay. […] We detected β-actin (1:5000, mouse, #66009-1-Ig, Proteintech), and total DAB1(1:100, SC-red tube; sc-271136 Dab1 (G-5), Santa Cruz). […] To quantify the results, each band was quantified using ImageJ and data expressed as DAB1:β-actin ratio normalized to the control. […]

[4] = WT male mice, 72 h post-trans-nasal delivery

B1: FcIgG-RAP-CTRH3447R (protein)
chain: MYRMQLLSCIALSLALVTNSAPLERKSSVECPPCPAPPVAGPSVFLFPPKPKDTLMISRTPEVTCVVVDVSHEDPEVQFNWYVDGVEVHNAKTKPREEQFNSTFRVVSVLTVVHQDWLNGKEYKCKVSNKGLPAPIEKTISKTKGQPREPQVYTLPPSREEMTKNQVSLTCLVKGFYPSDIAVEWESNGQPENNYKTTPPMLDSDGSFFLYSKLTVDKSRWQQGNVFSCSVMHEALHNHYTQKSLSLSPGARTGGGGSGGGGSMAPRRVRSFLRGLPALLLLLLFLGPWPAASHGGKYSREKNQPKPSPKRESGEEFRMEKLNQLWEKAQRLHLPPVRLAELHADLKIQERDELAWKKLKLDGLDEDGEKEARLIRNLNVILAKYGLDGKKDARQVTSNSLSGTQEDGLDDPRLEKLWHKAKTSGKFSGEELDKLWREFLHHKEKVHEYNVLLETLSRTEEIHENVISPSDLSDIKGSVLHSRHTELKEKLRSINQGLDRLRRVSHQGYSTEAEFEEPRVIDLWDLAQSANLTDKELEAFREELKHFEAKIEKHNHYQKQLEIAHEKLRHAESVGDGERVSRSREKHALLEGRTKELGYTVKKHLQDLSGRISRARHNELTGGSGGSTRKQNYMMNFSRQHGLRRFYNRRRRSLRRYP
pDAB1 (Tyr232)
  pDAB1 levels: increased pDAB1 levels
pDAB1 [1]; entorhinal-hippocampal section, 24 or 72 hours after MIND
  presence of peptide in the brain (Fc immunofluorescence): presence of the miniRELN peptide in the brain
pDAB1 [1]; wildtype animals, trans nasal, 24 hours, vs pluronic vehicle
  RELN signaling measured via pDab1 (immunofluorescence): increased levels of RELN signaling
[2]
  anti human IgG-Fc ELISA optical density in the hippocampus: trended to be increased
pDAB1 [3]; Tau P301S mice, 72 h post-trans nasal delivery, vs PBS
  pDAB1 levels in the entorhinal cortex: increased

B2: 6xHISCR-50-R5-6-CtermH3447R (protein)
chain: MYRMQLLSCIALSLALVTNSGGHHHHHHGGEQCGAIMHGNAVTFCEPYGPRELITTGLNTTTASVLQFSIGSGSCRFSYSDPSIIVLYAKNNSADWIQLEKIRAPSNVSTIIHILYLPEDAKGENVQFQWKQENLRVGEVYEACWALGSRGGQTNATRFRLWQPYNNGKKEEIWIVDDFIIDGNNVNNPVMLLDTFDFGPREDNWFFYPGGNIGLYCPYSSKGAPEEDSAMVFVSNEVGEHSITTRDLNVNENTIIQFEINVGCSTDSSSADPVRLEFSRDFGATWHLLLPLCYHSSSHVSSLCSTEHHPSSTYYAGTMQGWRREVVHFGKLHLCGSVRFRWYQGFYPAGSQPVTWAIDNVYIGPQCEEMCNGQGSCINGTKCICDPGYSGPTCKISTKNPDFLKDDFEGQLESDRFLLMSGGKPSRKCGILSSGNNLFFNEDGLRMLMTRDLDLSHARFVQFFMRLGCGKGVPDPRSQPVLLQYSLNGGLSWSLLQEFLFSNSSNVGRYIALEIPLKARSGSTRLRWWQPSENGHFYSPWVIDQILIGGNISGNMVLEDDFTTLDSRKWLLHPGGTKMPVCGSTGDALVFIEKASTRYVVSTDVAVNEDSFLQIDFAVSCSVTDSCYAIELEYSVDLGLSWHPLVRDCLPTNVECSRYHLQRILVSDTFNKWTRITLPLPPYTRSQATRFRWHQPAPFDKQQTWAIDNVYIGDGCIDMCSGHGRCIQGNCVCDEQWGGLYCDDPETSLPTQLKDNFNRAPSSQNWLTVNGGKLSTVCGAVASGMALHFSGGCSRLLVTVDLNLTNAEFIQFYFMYGCLITPNNRNQGVLLEYSVNGGITWNLLMEIFYDQYSKPGFVNILLPPDAKEIATRFRWWQPRHDGLDQNDWAIDNVLISGSASTRKQNYMMNFSRQHGLRRFYNRRRRSLRRYP
pDAB1 (Tyr232); 5 minutes treatment
  efficacy at RELN signaling (pDAB1) relative to comparators: more effective than commercially available positive control; also recorded: more effective at triggering signaling compared to full-length RELN WT and full-length RELN COLBOS
pDAB1 (Tyr232)
  pDAB1 levels: increased pDAB1 levels
Total DAB1
  total DAB1 levels normalized to β-actin and lipofectamine control: the most active
pDAB1 [3]; [4]
  pDAB1 levels in the hippocampus: increased
  pDAB1 levels in the midbrain: increased
